B1: RlpA-Δ32·MltF2 complex (MST) (complex)
chain 1: PQQPARQAGISGPGDYSRPHRDGAPWWDVDVSRIPDAVPMPHNGSVKANPYTVLGKTYYPMNDARAYRMVGTASWYGTKFHGQATANGETYDLYGMTAAHKTLPLPSYVRVTNLDNGKSVIVRVNDRGPFYSDRVIDLSFAAAKKLGYAETGTARVKVEGIDPVQWWAQRGRPAPMVLAQPKQAVAQAAPAAAQTQAVAMAQPIETYTPPPAQHAAAVLPVQIDSKKNASLPADGLYLQVGAFANPDAAELLKAKLSGVTAAPVFISSVVRNQQILHRVRLGPIGSADEVSRTQDSIRVANLGQPTLVRPD
chain 2: RITGQPDNWHREQPETRDLASIRRAGVLKVLVNQSRNSSGEVKGEPIGVEYRRLRAFEQYLNSRSPSARNLTLKLIPKPKDQLLAALQRGEGDLVAPGELLPAHDGLQVSPSAPVRADVPLVLVARKGNRRYTRLEQLSGRTIPLPAGSAAEGAIELVNQRLAQRRMAPIRIEKLDASLAVEDVMEMVQAGILGFTVVEQPIAERWAKVLPKLRVDRHLVLDNRADMAWYVRRDASTLRATIDRFLADYRAPADQDVAFQRVYRRAYKVRNPLGAADRKRLEAVRPLLQRYARQSSMDWLALAAVAYKESHLNPKARGSGGASGLMQITPAAARSVGVGNVHDKDSNVLAASRYLTKIRKQFFSSKHLDERERLAFTLAAYNMGPERVQNLRTQARRRGLDPNRWFFQVERVAAEEIGMGVVSYVSSVNKYYLAYERERVRLEPGVRAKTATAQK
modifications: amine reactive RED-NHS dye
B4: RlpA-Δ81 (domain or fragment)
chain: YTVLGKTYYPMNDARAYRMVGTASWYGTKFHGQATANGETYDLYGMTAAHKTLPLPSYVRVTNLDNGKSVIVRVNDRGPFYSDRVIDLSFAAAKKLGYAETGTARVKVEGIDPVQWWAQRGRPAPMVLAQPKQAVAQAAPAAAQTQAVAMAQPIETYTPPPAQHAAAVLPVQIDSKKNASLPADGLYLQVGAFANPDAAELLKAKLSGVTAAPVFISSVVRNQQILHRVRLGPIGSADEVSRTQDSIRVANLGQPTLVRPD
notes: source: E. coli BL21-star (DE3), purified (Ni-NTA)
B5: PA2854 (natural protein)
chain: LELQLPPPGEDVVGQVQVIKAKYEDTFADLGEQYNLGYSEMVAANPGVDPWLPGVGTEVIIPTRFVLPPGPREGVVINLAEYRLYYYPKGQNVVHTYPLGIGREGWGSPIANTRITAKTKDPAWYPPASIRAEHAADGDPLPTVVPPGPDNPLGPYKLTLGVPGYLIHGSNKKFGIGTRTSHGCFRMYNADVTHLFSMISVGTSVRIINEPYKFGVSNGKVYLEAHTPLNDHGDPSVVDKHTAVINTLLKRDDLAKRIQLNWDVVREVVASEDGVPVEIAQESAPAMTATVDSDPTQLTP
notes: source: E. coli, purified (Ni-NTA or Strep-Tactin)

What all share (conditions): both partners purified
Assay [1] deals with T1, PBP1a (P. aeruginosa PAO1, UniProt Q07806 27-822). Briefly: MST.
T1 sequence (Q07806 27-822): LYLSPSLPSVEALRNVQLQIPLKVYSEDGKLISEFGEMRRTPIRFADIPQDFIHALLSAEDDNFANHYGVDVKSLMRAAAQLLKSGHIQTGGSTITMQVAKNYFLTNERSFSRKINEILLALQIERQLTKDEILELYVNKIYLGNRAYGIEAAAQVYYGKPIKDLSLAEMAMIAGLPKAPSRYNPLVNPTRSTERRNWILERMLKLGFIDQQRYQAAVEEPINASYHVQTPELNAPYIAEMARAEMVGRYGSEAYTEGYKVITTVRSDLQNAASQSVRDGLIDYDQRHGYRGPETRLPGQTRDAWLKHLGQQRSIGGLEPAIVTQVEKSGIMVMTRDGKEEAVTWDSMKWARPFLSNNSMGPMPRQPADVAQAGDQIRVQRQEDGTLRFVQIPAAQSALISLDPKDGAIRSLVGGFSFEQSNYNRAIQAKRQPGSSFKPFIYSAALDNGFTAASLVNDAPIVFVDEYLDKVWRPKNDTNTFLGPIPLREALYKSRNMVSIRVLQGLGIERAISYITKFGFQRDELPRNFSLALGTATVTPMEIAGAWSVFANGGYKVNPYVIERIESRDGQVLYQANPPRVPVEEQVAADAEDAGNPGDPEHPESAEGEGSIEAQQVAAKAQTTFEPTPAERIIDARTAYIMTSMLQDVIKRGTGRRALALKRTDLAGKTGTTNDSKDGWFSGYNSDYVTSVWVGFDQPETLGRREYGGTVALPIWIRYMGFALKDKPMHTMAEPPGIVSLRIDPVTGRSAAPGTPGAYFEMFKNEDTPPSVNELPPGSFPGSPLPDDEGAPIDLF
Assay [2] deals with T2, RlpA-Δ32, fluorescently labeled (P. aeruginosa PAO1, UniProt Q9X6V6 32-342, amine reactive RED-NHS dye).
T2 construct: source: E. coli BL21-star (DE3), purified (Ni-NTA), labelled with RED-NHS dye
T2 sequence: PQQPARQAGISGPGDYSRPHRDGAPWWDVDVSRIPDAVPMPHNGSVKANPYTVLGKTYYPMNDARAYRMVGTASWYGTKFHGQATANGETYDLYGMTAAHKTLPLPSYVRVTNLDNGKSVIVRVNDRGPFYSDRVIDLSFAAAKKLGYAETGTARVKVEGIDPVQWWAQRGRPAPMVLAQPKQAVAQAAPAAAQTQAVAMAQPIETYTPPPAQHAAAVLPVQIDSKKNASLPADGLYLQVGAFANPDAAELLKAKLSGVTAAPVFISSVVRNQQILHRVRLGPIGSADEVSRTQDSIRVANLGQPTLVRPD
Briefly: MST.

In assay [3] the target is B1. Put plainly: MST.
For assay [4], the target named is T3, RlpA-Δ32 (P. aeruginosa PAO1, UniProt Q9X6V6 32-342).
T3 construct: source: E. coli BL21-star (DE3), purified (Ni-NTA)
T3 sequence: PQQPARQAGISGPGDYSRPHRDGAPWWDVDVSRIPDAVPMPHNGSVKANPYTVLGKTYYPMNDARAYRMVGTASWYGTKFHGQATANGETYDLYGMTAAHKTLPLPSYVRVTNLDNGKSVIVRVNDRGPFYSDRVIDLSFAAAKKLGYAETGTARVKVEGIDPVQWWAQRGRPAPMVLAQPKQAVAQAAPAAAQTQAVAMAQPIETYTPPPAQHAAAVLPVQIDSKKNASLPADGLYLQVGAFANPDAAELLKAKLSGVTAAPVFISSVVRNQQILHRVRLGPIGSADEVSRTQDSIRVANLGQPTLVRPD
Briefly: SPR.

Assay [5] concerns the target B4. Briefly: SPR.
Assay [6] concerns the target B5. Put plainly: SPR. On the technique in general: In SPR one partner is held on a chip, and binding of the other changes the refractive index at the surface.
For assay [7], the target named is T1, PBP1a. Briefly: SPR.
For assay [8], the target named is T4, MltD (P. aeruginosa PAO1, UniProt Q9I2T2 1-534).
T4 sequence (looked up): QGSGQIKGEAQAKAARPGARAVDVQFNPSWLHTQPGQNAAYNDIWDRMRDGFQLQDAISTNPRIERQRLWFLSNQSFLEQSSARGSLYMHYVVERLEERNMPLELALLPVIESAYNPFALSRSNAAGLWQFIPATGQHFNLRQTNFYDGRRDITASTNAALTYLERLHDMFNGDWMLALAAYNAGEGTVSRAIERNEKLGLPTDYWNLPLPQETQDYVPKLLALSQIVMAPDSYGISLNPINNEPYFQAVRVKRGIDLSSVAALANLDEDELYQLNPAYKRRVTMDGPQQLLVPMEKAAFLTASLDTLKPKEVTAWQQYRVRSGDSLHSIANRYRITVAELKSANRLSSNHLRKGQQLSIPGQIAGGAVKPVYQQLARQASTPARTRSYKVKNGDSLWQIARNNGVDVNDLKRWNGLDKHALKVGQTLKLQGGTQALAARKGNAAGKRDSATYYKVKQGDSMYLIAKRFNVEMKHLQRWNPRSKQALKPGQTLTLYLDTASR
Briefly: SPR.

Assay [9] has as its target T5, TypA (P. aeruginosa PAO1, UniProt Q9HU67 1-605).
T5 sequence (looked up): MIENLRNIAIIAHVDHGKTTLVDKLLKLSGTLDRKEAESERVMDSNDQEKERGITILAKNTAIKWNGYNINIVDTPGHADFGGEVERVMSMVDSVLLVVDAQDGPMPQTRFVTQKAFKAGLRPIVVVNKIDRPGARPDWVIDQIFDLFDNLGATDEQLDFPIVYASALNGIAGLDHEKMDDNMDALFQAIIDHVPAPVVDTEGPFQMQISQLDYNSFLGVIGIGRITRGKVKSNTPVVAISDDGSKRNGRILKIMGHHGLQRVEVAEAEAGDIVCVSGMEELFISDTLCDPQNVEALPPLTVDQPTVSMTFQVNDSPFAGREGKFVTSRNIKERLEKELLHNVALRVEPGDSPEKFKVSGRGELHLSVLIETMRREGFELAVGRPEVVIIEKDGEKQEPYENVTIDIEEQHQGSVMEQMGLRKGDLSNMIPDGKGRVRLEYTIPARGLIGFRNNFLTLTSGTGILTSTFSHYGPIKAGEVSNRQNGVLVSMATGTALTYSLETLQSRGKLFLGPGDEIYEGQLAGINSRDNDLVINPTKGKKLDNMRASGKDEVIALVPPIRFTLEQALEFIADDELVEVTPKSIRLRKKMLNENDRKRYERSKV
Put plainly: SPR.

The target of assay [10] is T6, MltF2 (P. aeruginosa PAO1, UniProt Q9HZY1 1-476).
T6 sequence (looked up): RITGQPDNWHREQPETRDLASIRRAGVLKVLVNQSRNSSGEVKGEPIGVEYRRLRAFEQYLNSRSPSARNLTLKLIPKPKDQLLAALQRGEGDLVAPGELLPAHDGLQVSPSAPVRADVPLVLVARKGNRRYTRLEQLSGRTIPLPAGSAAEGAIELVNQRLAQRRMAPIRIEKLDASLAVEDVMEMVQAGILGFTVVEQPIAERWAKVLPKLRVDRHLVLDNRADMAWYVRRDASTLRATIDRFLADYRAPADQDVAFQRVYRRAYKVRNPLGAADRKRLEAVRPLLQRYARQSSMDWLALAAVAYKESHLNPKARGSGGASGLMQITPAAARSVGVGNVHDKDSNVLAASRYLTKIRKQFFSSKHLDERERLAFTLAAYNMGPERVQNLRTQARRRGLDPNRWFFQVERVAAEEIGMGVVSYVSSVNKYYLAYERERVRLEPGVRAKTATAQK
Put plainly: SPR.

In general, Kd refers to the equilibrium constant for the complex coming apart. A word on the koff: it is a measure of how fast the partners let go of each other. A high value points to a short-lived complex. By kon is commonly meant the second-order rate constant of association. The low end stands for slower complex formation, the high end for faster complex formation.

Molecule B1 showed a Kd in assay [1] of 0.045 µM. That is a double-digit nanomolar value.

B2: PilO (natural protein)
chain: YNFHLSDMQAQLEQQAAEEETLKQQFSTKAFQAANLEAYKAQMKEMEESFGALLRQLPSDTEVPGLLEDITRTGLGSGLEFEEIKLLPEVAQQFYIELPIQISVVGGYHDLATFVSGVSSLPRIVTLHDFEIKPVAPGSTSKLRMSILAKTYRYNDKGLKK
notes: as for B5
For B2, the Kd in assay [2] is 0.35 µM; in assay [3] it was 0.208 µM; in [4], 3.13 µM; in assay [5] it was 1.01 µM. The figures for the koff in [4] and in [5] were 0.00275 s⁻¹ and 0.00076 s⁻¹, respectively. The values for the kon in assay [4] and in assay [5] were 880 M⁻¹ s⁻¹ and 750 M⁻¹ s⁻¹, respectively.

B3: PA4063 (natural protein)
chain: HDDHDHDHAHGSLGKHEHGVAQLNVALDGKTLELELDSPAMNLVGFEHAASTDADKAAVAKARAQLEKPLELFALPVTAGCSVASQELRSPLFGDKAPAHAHKEKAGHEHEHEHEHEHGHADIHAHYQLSCEKPELLKLLTLAEFFKRFPATQKIQVQLIGPDGQKGADLAPASAELKL
notes: as for B5
In the case of B3, the Kd in assay [2] amounted to 0.201 µM; in [3], 0.105 µM; in assay [4] it was 0.81 µM; in [5], 1.08 µM. Moreover, the koff in [4] came to 0.00145 s⁻¹; in assay [5] it was 0.00194 s⁻¹. Besides, the kon in assay [4] and in [5] was 1800 M⁻¹ s⁻¹ throughout.

Consider B4, for which the Kd in assay [6] was found to be 2.27 µM; in assay [7] it was 0.094 µM; in [8], 0.056 µM; in assay [9], 0.074 µM; in assay [10] it was 0.003 µM. The koff was 0.00075 s⁻¹ in [6]; 0.00177 s⁻¹ in assay [7]; 0.0039 s⁻¹ in assay [8]; 0.00047 s⁻¹ in [9]; 4e-05 s⁻¹ in assay [10]. Moreover, the kon in assay [6] stood at 330 M⁻¹ s⁻¹; in [7], 18800 M⁻¹ s⁻¹; in assay [8], 69000 M⁻¹ s⁻¹; in [9] it was 6400 M⁻¹ s⁻¹; in [10] it was 14900 M⁻¹ s⁻¹.

Turning to B5, in [2], the Kd was 0.058 µM. This molecule also had a Kd in [3] of 0.055 µM. Moreover, in [4], the Kd came to 0.065 µM, the koff came to 0.00032 s⁻¹ and the kon worked out at 4900 M⁻¹ s⁻¹.

Values taken from article PMC9712689 (Communications Biology, 2022).
